Test results as given in paper PMC12047441.

Target: T1, His-tagged A. vinelandii NifEN heterologously expressed in E. coli, O- and L-cluster containing (AvNifEN^Ec-L) (A. vinelandii) (UniProt P08293)
T1 sequence 1: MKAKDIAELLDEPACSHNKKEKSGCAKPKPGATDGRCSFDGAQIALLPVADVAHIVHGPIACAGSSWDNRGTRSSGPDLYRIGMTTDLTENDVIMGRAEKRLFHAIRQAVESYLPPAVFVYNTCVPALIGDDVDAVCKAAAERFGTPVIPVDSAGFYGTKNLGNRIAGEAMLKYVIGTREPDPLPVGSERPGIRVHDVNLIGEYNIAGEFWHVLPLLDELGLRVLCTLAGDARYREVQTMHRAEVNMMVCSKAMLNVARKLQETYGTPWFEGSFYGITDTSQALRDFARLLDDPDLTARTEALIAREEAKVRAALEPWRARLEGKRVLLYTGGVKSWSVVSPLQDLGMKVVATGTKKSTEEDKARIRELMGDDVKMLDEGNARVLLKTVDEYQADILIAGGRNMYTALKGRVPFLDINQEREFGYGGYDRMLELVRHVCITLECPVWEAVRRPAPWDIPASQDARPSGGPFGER
T1 sequence 2: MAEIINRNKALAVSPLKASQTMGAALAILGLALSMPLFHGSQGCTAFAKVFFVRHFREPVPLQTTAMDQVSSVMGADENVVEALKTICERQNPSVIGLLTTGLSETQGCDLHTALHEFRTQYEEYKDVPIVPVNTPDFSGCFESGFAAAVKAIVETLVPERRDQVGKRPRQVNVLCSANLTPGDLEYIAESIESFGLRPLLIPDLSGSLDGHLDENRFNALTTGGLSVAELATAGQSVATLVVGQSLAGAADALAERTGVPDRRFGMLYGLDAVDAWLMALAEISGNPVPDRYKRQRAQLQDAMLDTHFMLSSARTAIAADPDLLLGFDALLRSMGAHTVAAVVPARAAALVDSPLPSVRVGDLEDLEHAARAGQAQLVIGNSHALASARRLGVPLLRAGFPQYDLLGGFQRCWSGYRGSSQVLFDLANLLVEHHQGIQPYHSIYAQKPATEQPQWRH

B1: M. acetivorans NifB (MaNifB), radical SAM enzyme, L-cluster bound (enzyme)
chain: MPEENQPIKEKNNGPILGEELLRKISEHPCYDKNAQHKYGRIHLAVAPACNIQCNFCVREFDCVNESRPGVTSKVLTPEEALEKTKQILAEYPFIKVVAIAGPGDPLANDETFETFELIRNEFPEITLCMSTNGLMLPEKLPEILRTGVSTLTVTVNAIDPEIQAKIVDHIFYHGKVYKGVEAAKIQIKNQLDGIKAAIDAGIVVKVNTVLIPGINDKHIIEIAKKLNELGVYIMNVMPLINQGAFADLEPPTPEERKAVQEACEPYVMQMRHCRQCRADAYGLLAQDMSQMSEERRKVIKIQTKEDMEKARAVLEKNGKKEA
Question: B1 was tested. Which L-cluster occupancy of AvNifEN^Ec-L calculated from the Fe content, after in vivo transfer of the L-cluster from NifB to NifEN in E. coli did it give?
Answer: 42.9%

Question: And the L-cluster occupancy of AvNifEN^Ec-L relative to native AvNifEN^L (intensity of the g = 1.94 EPR feature), after in vivo transfer of the L-cluster from NifB to NifEN in E. coli?
Answer: 36%
